Assay results as given in paper PMC9639781.

Molecular target: ATP synthase (endogenous, mouse cardiomyocytes) (mouse (endogenous in mouse neonatal cardiomyocytes)) (UniProt P56480)
Assay: native gel or EMSA

stoichiometry N: 2
Substance: ATP synthase (endogenous, mouse cardiomyocytes) (from UniProt P56480 47-529; Q9DCX2 1-161; Q9DB20 24-213; Q9CQQ7 43-256) (complex)
